Test results taken from patent US20210246166A1 (Bayer, published 2021).
Bridge positions count the residues as written; N and C are the ends. Ends that are not written are not given here.

T1: Recombinant rat MASP1 enzyme (fragment corresponding to amino acids 302-704, C-terminal His Tag) (rat, UniProt Q8CHN8 302-704)
T1 sequence: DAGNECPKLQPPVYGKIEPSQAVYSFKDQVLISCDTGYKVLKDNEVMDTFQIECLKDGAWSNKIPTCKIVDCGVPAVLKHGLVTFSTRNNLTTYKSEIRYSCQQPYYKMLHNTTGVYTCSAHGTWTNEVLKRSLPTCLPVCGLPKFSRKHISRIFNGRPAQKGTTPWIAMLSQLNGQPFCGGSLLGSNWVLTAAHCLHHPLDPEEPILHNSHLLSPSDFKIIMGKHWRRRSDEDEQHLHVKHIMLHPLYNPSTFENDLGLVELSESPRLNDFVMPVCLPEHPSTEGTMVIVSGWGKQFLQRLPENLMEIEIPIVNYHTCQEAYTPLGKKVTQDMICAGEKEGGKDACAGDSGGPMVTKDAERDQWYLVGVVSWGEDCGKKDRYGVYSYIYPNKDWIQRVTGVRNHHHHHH

T2: Recombinant human MASP1 active protease (amino acids 297-699, C-terminal His Tag) (human, UniProt P48740 297-699)
T2 sequence: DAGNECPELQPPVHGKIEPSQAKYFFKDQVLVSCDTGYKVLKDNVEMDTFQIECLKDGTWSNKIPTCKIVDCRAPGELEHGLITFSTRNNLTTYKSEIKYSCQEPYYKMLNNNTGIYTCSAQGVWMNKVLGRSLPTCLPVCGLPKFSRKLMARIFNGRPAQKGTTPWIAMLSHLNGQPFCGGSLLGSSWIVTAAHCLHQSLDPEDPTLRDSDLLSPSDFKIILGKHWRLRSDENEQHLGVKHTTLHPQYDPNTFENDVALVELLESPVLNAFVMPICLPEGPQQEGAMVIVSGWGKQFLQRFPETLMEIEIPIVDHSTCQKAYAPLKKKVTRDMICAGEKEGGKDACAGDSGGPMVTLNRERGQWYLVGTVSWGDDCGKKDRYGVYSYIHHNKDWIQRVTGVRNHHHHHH

B1: AIC+SRSLPPIC+IPD-NH2 (peptide)
peptide: AICSRSLPPICIPD-NH2
modifications: disulfide 3-11; N-terminus assumed
SMILES: CC[C@H](C)[C@H](NC(=O)[C@H](C)N)C(=O)N[C@H]1CSSC[C@@H](C(=O)N[C@H](C(=O)N2CCC[C@H]2C(=O)N[C@@H](CC(=O)O)C(N)=O)[C@@H](C)CC)NC(=O)[C@H]([C@@H](C)CC)NC(=O)[C@@H]2CCCN2C(=O)[C@@H]2CCCN2C(=O)[C@H](CC(C)C)NC(=O)[C@H](CO)NC(=O)[C@H](CCCNC(=N)N)NC(=O)[C@H](CO)NC1=O
B2: GIC+SRSLPPIC+IPD-OH (peptide)
peptide: GICSRSLPPICIPD-OH
modifications: disulfide 3-11; N-terminus assumed
SMILES: CC[C@H](C)[C@H](NC(=O)CN)C(=O)N[C@H]1CSSC[C@@H](C(=O)N[C@H](C(=O)N2CCC[C@H]2C(=O)N[C@@H](CC(=O)O)C(=O)O)[C@@H](C)CC)NC(=O)[C@H]([C@@H](C)CC)NC(=O)[C@@H]2CCCN2C(=O)[C@@H]2CCCN2C(=O)[C@H](CC(C)C)NC(=O)[C@H](CO)NC(=O)[C@H](CCCNC(=N)N)NC(=O)[C@H](CO)NC1=O
B3: AIC+SRSLPPIC+IPD-OH (peptide)
peptide: AICSRSLPPICIPD-OH
modifications: disulfide 3-11; N-terminus assumed
SMILES: CC[C@H](C)[C@H](NC(=O)[C@H](C)N)C(=O)N[C@H]1CSSC[C@@H](C(=O)N[C@H](C(=O)N2CCC[C@H]2C(=O)N[C@@H](CC(=O)O)C(=O)O)[C@@H](C)CC)NC(=O)[C@H]([C@@H](C)CC)NC(=O)[C@@H]2CCCN2C(=O)[C@@H]2CCCN2C(=O)[C@H](CC(C)C)NC(=O)[C@H](CO)NC(=O)[C@H](CCCNC(=N)N)NC(=O)[C@H](CO)NC1=O

Each binder was assayed against T1, Recombinant rat MASP1 enzyme (fragment …) (assay: cell-based or functional assay).
For AICSRSLPPICIPD-NH2 (disulfide 3-11; also: HCl salt) [AIC+SRSLPPIC+IPD-NH2 (HCl Salt)], the “rat MASP1 IC50” value was 210 nM. For B1, the “rat MASP1 IC50” value was 83.4 nM. For B2, the “rat MASP1 IC50” value was 68.6 nM. B3 was tested, and the “rat MASP1 IC50” value was 50.2 nM.

These binders were tested against Recombinant rat MASP2 enzyme (fragment corresponding to amino acids 296-685, C-terminal His Tag) (rat, UniProt Q9JJS8 296-685) (assay: cell-based or functional assay).
Sequence of Recombinant rat MASP2 enzyme (fragment corresponding to amino acids 296-685, C-terminal His Tag) (Q9JJS8 other isoform, or with tags, fused parts or gaps limits assumed): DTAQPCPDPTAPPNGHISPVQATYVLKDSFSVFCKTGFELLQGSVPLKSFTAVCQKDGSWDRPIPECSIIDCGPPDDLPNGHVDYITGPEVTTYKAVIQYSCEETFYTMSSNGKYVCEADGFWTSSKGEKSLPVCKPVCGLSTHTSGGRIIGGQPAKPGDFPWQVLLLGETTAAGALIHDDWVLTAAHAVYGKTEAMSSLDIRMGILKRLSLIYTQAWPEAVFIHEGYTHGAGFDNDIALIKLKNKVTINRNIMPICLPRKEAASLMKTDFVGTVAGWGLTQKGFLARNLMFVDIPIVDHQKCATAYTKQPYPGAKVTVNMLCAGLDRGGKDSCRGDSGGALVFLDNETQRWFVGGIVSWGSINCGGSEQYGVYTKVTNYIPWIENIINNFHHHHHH
With B1 the “rat MASP2 IC50” value was 54.2 nM. For B2, the “rat MASP2 IC50” value was 68 nM. With B3 the “rat MASP2 IC50” value was 68.4 nM.

The binders below were run against T2, Recombinant human MASP1 active protease … (assay: cell-based or functional assay).
For AICSRSLPPICIPD-NH2 (disulfide 3-11; also: HCl salt) [Ala-1 SFMI-1 HCl amide, AIC+SRSLPPIC+IPD-NH2 (HCl Salt) (Reference No C)], the “human MASP1 IC50 (FRET substrate cleavage, enzyme activity)” value (shortened to “human MASP1 IC50”) was 3.6 nM. AICSRSLPPICIPD-NH2 (disulfide 3-11; also: TFA salt) [Ala-1 SFMI-1 amide, AIC+SRSLPPIC+IPD-NH2 (Reference No B)] was tested, and the “human MASP1 IC50” value was 8 nM. For GICSRSLPPICIPD-OH (disulfide 3-11; also: TFA salt) [SFMI-1, GIC+SRSLPPIC+IPD-OH (Reference No 1)], the “human MASP1 IC50” value was 15.6 nM. In the case of AICSRSLPPICIPD-OH (disulfide 3-11; also: TFA salt) [Ala-1 SFMI-1, AIC+SRSLPPIC+IPD-OH (Reference No A)], the “human MASP1 IC50” value is reported as 7.45 nM. In the case of GICSRSLPPICIPD-NH2 (disulfide 3-11; also: TFA salt) [SFMI-1 amide, GIC+SRSLPPIC+IPD-NH2 (Reference No 3)], the “human MASP1 IC50” value is reported as 18 nM. GICSRSLPPICIPD-OH (disulfide 3-11; also: HCl salt) [SFMI-1 HCl, GIC+SRSLPPIC+IPD-OH (HCl Salt) (Reference No 2)] was tested, and the “human MASP1 IC50” value was 18 nM.

Each binder was assayed against Recombinant human MASP2 active protease (amino acids 297-686, C-terminal His Tag) (human, UniProt O00187 297-686) (assay: cell-based or functional assay).
Sequence of Recombinant human MASP2 active protease (amino acids 297-686, C-terminal His Tag) (O00187 other isoform, or with tags, fused parts or gaps limits assumed): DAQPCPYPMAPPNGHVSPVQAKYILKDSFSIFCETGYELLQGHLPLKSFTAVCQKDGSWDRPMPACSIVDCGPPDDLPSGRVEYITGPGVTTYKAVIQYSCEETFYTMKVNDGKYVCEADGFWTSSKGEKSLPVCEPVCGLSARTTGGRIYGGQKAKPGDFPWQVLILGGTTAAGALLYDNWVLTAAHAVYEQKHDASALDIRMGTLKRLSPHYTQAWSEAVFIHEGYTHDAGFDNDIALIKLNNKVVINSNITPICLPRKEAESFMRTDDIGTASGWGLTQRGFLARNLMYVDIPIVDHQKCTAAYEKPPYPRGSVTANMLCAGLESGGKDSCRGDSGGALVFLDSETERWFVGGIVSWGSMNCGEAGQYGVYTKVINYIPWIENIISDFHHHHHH
In the case of AICSRSLPPICIPD-NH2 (disulfide 3-11; also: HCl salt) [Ala-1 SFMI-1 HCl amide, AIC+SRSLPPIC+IPD-NH2 (HCl Salt) (Reference No C)], the “human MASP2 IC50 (FRET substrate cleavage, enzyme activity)” value (“human MASP2 IC50” below) is reported as 3000 nM. For AICSRSLPPICIPD-NH2 (disulfide 3-11; also: TFA salt) [Ala-1 SFMI-1 amide, AIC+SRSLPPIC+IPD-NH2 (Reference No B)], the “human MASP2 IC50” value was 390 nM. GICSRSLPPICIPD-OH (disulfide 3-11; also: TFA salt) [SFMI-1, GIC+SRSLPPIC+IPD-OH (Reference No 1)] was tested, and the “human MASP2 IC50” value was 1090 nM. AICSRSLPPICIPD-OH (disulfide 3-11; also: TFA salt) [Ala-1 SFMI-1, AIC+SRSLPPIC+IPD-OH (Reference No A)] was tested, and the “human MASP2 IC50” value was 914 nM. GICSRSLPPICIPD-NH2 (disulfide 3-11; also: TFA salt) [SFMI-1 amide, GIC+SRSLPPIC+IPD-NH2 (Reference No 3)] was tested, and the “human MASP2 IC50” value was 610 nM. In the case of GICSRSLPPICIPD-OH (disulfide 3-11; also: HCl salt) [SFMI-1 HCl, GIC+SRSLPPIC+IPD-OH (HCl Salt) (Reference No 2)], the “human MASP2 IC50” value is reported as 610 nM.
